Source: patent US7217694B2, “Inhibitors of IAPP fibril formation and uses thereof” (The Governing Counsel of the University of Toronto, priority 2000, dated 2007)
“Also recorded” adds a separate entry of the source. No end group written: not given here.

Columns and labels:
hIAPP 1–37 [1] = target: T1, hIAPP 1–37 (Homo sapiens, UniProt P10997); test: Sedimentation assay (tyrosine scan) of soluble versus insoluble hIAPP; format: biochemical; settings: hIAPP 11 μM with 10 fold excess (110 μM) peptide
T1 construct: Synthetic human IAPP (1–37) was purchased from BACHEM; purchased BACHEM (Torrence, Calif.); host or cells: chemical synthesis
T1 sequence (P10997 34-70): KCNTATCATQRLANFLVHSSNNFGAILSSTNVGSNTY
Description: Aliquots of lyophilized hIAPP 1–37 were dissolved in 20 mM acetate buffer (pH 6.5) to 11 μM and incubated in a total volume of 500 μl at room temperature. Tyrosine emission spectra were collected (emission wavelength 275 nm) on a Beckman DU530 spectrophotometer for each sample at time 0. Following a 24 hour incubation at room temperature, the soluble and aggregated peptides in each sample were separated by centrifugation at 16,000 g for 20 minutes, and the emission spectra were measured on the soluble fractions. The samples were then vortexed to resuspend the entire contents of each tube, and were incubated for an additional 24 hours. This process was repeated for a total of 72 hours of incubation. For co-incubation experiments, hIAPP was incubated with a 10 fold excess concentration (110 μM) of the inhibitory peptides SNNFGA (SEQ ID NO. 11), and GAILSS (SEQ ID NO. 14).
Sedimentation assays were performed to confirm the results from CD and electron microscopic analysis (FIGS. 7A and 7B) on the ability of peptides SNNFGA (SEQ ID NO. 11) and GAILSS (SEQ ID NO. 14) to inhibit IAPP fibril formation. hIAPP (11 μM) was incubated for a period of 72 hours in 20 mM acetate buffer alone, or with a 10 fold excess (110 μM) of the peptides.
A tyrosine scan was used to determine the amount of soluble hIAPP remaining in solution after a 72-hour incubation. […] Following a 24-hour incubation, the amount of soluble hIAPP had reduced to 8%. However, when hIAPP was incubated in the presence of the peptide SNNFGA (SEQ ID NO. 11), the amount of IAPP remaining in solution was approximately […], and in the presence of peptide GAILSS (SEQ ID NO. 14), more than 80% of the hIAPP remained in solution. By 48 hours, the hIAPP incubated alone was no longer soluble and was not detectable using a tyrosine scan. However, approximately 25% of the hIAPP was still measured when co-incubated with either peptide. Similarly, after 72 hours approximately 20% of the hIAPP was still soluble in the sample co-incubated with peptide SNNFGA (SEQ ID NO. 11) or GAILSS (SEQ ID NO. 14).

RIN-1056A cells = test: IAPP toxicity assay (alamar Blue); format: cell-based
Description: RIN-1056A cells were plated into 96 well plates at a density of 2×10^4 cells/well in Dulbecco's Modified Eagle Medium (DMEM) (Gibco-BRL) supplemented with 5% Fetal calf serum (Gibco-BRL), 100 U/ml penicillin (Gibco-BRL), and 100 U/ml streptomycin (Gibco-BRL). After an initial 24 h of culture, cells received fresh medium containing 10 μM hIAPP or rat IAPP alone, or in combination with 200 μM SNNFGA (SEQ ID NO. 11). Cells in control wells received fresh medium only. Cells were incubated with peptide at 37° C., 5% CO2, for 24 hours, after which alamar Blue ( 1/10th volume) was added to each well. Cells were incubated in the presence of alamar Blue (MEDICORP, Montreal) for a period of 8 hours, and data was collected at 2 hour intervals. The fluorescence of the samples was measured using a SpectraMAX Gemini XS Microplate Spectrofluorometer (Molecular Devices) with an excitation wavelength of […] and an emission wavelength of 590 nm. Data were collected using the SoftMax Pro 3.1 software for MacIntosh.
The toxicity of hIAPP fibrils on pancreatic β cell lines has been well documented. […] cells were incubated for 24 hours in the presence of 10 μM hIAPP alone or in the presence of the peptide SNNFGA (SEQ ID NO. 11). An alamar Blue assay was used to quantitatively measure the proliferation of the cells, and compare the cytotoxic effects of various additives to the cultures.

hIAPP 1–37 [2] = target: T1, hIAPP 1–37; test: Circular dichroism (CD) of IAPP conformational change, random coil to β-sheet; format: biochemical
Source text: (§1) FIG. 1 illustrates the sequence of the amyloid-β (Aβ) peptide and its proposed structural domains. A peptide-based approach similar to that used for Aβ (Tjernberg, et al, J Biol Chem 272:12601–12605, 1997) has been used for targeting two key domains in IAPP initially ranging from the 8–20 and 20–29 sequences as shown in FIG. 2. These peptides, as has been shown for Aβ peptides, are able to bind to the full-length IAPP peptide and alter fibrillogenesis. The peptides disrupt fibrillogenesis by disrupting the folding into the amyloidogenic β-sheet conformation, disrupting protofilament interactions, and/or interfering with side chain interactions within the folded IAPP, which are necessary for aggregation and fibril formation. The peptides that have been examined (shown in FIG. 2) were small, synthetic hexapeptides that correspond to the principal sequence domains of IAPP. […] The in vitro assays included: Circular Dichroism (CD), to look at changes in folding of the amyloidogenic β-sheet; negative stain electron microscopy (EM) to examine changes in fibril morphology and relative density; and ThT fluorescence assay which provides a quantitative assessment of fibril formation.
Synthetic human IAPP (1–37) was purchased from BACHEM (Torrence, Calif.), synthetic peptides spanning the region from IAPP 8 to 20 and 19–31 (FIG. 3) were synthesized by the Peptide Synthesis Laboratory at the University of Toronto using standard FMOC (Fluoroenylmethoxycarbonyl) based solid phase peptide synthesis methodology. The peptides were purified by reverse phase HPLC using water/acetonitrile mixtures buffered with 0. 1% trifluoroacetic acid, on a POROS 20R2 column. The synthetic peptides were solubilized in […] (1 mg/ml), filtered (0.2 μm), aliquotted and lyophilized (Higham, C E., et al., FEBS Lett. 470: 55–60, 2000). Aliquots were reconstituted as required in 20 mM sodium acetate buffer pH 6.5.
CD was used to measure the peptide conformational changes associated with fibril formation. CD experiments were carried out at room temperature, and spectra (average of 5 scans) were collected using a Jasco J720 spectropolarimeter and quartz cuvettes with a path length of 1 mm. […]

hIAPP 1–37 [3] = target: T1, hIAPP 1–37; test: Negative stain electron microscopy of IAPP fibril morphology and density; format: biochemical
Source text: as §1
TEM was used for structural analysis of in vitro assembled fibrils. Aliquots (4 μl) were applied to pioloform and carbon coated grids. The samples were incubated on the grids for 3 minutes at room temperature, excess material blotted off and stained with 1% phosphotungstic acid (PTA). Excess PTA was blotted off and the sample was left to air dry. All samples were examined using a Hitachi 7000 electron microscope with an accelerating voltage of 75 kV.
In preliminary work the series of peptides were synthesized from the 20–29 domain and examined, via CD, EM and ThT fluorescence, at two molar ratios (1:10 and 1:20) in comparison to the full-length IAPP residues 1–37. The following data (FIGS. 5A to 5D, 6A to 6C and 7A to 7B) were obtained.

[4] = 24-hour incubation, normalized to hIAPP alone at time 0

Molecule	amount of hIAPP remaining in solution (hIAPP 1–37 [1]; [4])	amount of hIAPP remaining in solution (hIAPP 1–37 [1]; 48 hours)	amount of hIAPP remaining in solution (hIAPP 1–37 [1]; 72 hours)	direct toxicity of the peptide to pancreatic β cells in culture (RIN-1056A cells)	decrease in cell viability compared to cells in culture medium alone (RIN-1056A cells; 10 μM hIAPP, 24 hours)	inhibition of IAPP β-sheet transition and aggregation (CD) (hIAPP 1–37 [2]; 1:10 or 1:20 molar ratio (10- or 20-fold molar excess))	inhibition of IAPP β-sheet conformational change at reduced concentrations (CD) (hIAPP 1–37 [2]; 5-fold molar excess (1:5) or 1:1 molar ratio)	effect on IAPP β-sheet formation / precipitation (CD) (hIAPP 1–37 [2]; 48-hour incubation, pH 6.5)	inhibition of IAPP β-sheet formation / fibril formation, overall statement (CD) (hIAPP 1–37 [2]; molar ratio not stated)	effect on initial random structure of IAPP (CD) (hIAPP 1–37 [2]; time 0, 1:10 or 1:20 molar ratio)	prevention of IAPP fibril formation (EM) (hIAPP 1–37 [3]; 10- or 20-fold molar excess)	effect on IAPP fibril morphology / density / aggregation (EM) (hIAPP 1–37 [3]; molar ratio not stated)	inhibition of normal IAPP fibrillar aggregation (EM) (hIAPP 1–37 [3]; reduced inhibitor concentrations)
SNNFGA [SNNFGA]	approximately 15%	approximately 25%	approximately 20%	not directly toxic									
CC[C@H](C)[C@H](NC(=O)[C@H](C)NC(=O)CNC(=O)[C@H](Cc1ccccc1)NC(=O)[C@H](CC(N)=O)NC(=O)[C@H](CC(N)=O)NC(=O)[C@H](CO)NC(=O)[C@H](CO)NC(=O)[C@H](Cc1c[nH]cn1)NC(=O)[C@@H](NC(=O)[C@H](CC(C)C)NC(=O)[C@H](Cc1ccccc1)NC(=O)[C@H](CC(N)=O)NC(=O)[C@H](C)NC(=O)[C@H](CC(C)C)NC(=O)[C@H](CCCNC(=N)N)NC(=O)[C@H](CCC(N)=O)NC(=O)[C@@H](NC(=O)[C@H](C)NC(=O)[C@@H]1CSSC[C@H](NC(=O)[C@@H](N)CCCCN)C(=O)N[C@@H](CC(N)=O)C(=O)N[C@@H]([C@@H](C)O)C(=O)N[C@@H](C)C(=O)N[C@@H]([C@@H](C)O)C(=O)N1)[C@@H](C)O)C(C)C)C(=O)N[C@@H](CC(C)C)C(=O)N[C@@H](CO)C(=O)N[C@@H](CO)C(=O)N[C@H](C(=O)N[C@@H](CC(N)=O)C(=O)N[C@H](C(=O)NCC(=O)N[C@@H](CO)C(=O)N[C@@H](CC(N)=O)C(=O)N[C@H](C(=O)N[C@@H](Cc1ccc(O)cc1)C(N)=O)[C@@H](C)O)C(C)C)[C@@H](C)O [hIAPP, reference compound]					35–40%								
GAILSS	more than 80%	approximately 25%	approximately 20%			very strong inhibitors of IAPP β-sheet transition; also recorded: majority of IAPP in these samples was maintained in a random conformation	very strong inhibitor; also recorded: capable of maintaining the majority of hIAPP in a random coil conformation	able to prevent the attenuation of signal due to precipitation of IAPP	greatest inhibition of IAPP fibril formation	had no effect on the initial random structure of IAPP	did not completely prevent fibril formation	caused a disruption in IAPP fibrillar structure; also recorded: fibrils formed were less numerous; also recorded: absence of fibrillar aggregates which could act as seeds	effective inhibitors of normal IAPP fibrillar aggregation
